In this test the target is target ligand expressed on MutuDC1940 cells. Kind of test: cell-based or functional assay.

Turning to “antibody-bound lipid nanoparticle carrying a fragment of the NLDC145 antibody conjugated with the membrane scaffold protein MSP1E3D1 (scFv)”, the relative expression level of the Firefly luciferase gene against general lipid nanoparticles, MutuDC1940 cells, 10% FBS, LP ratio 5,000:1 to 100,000:1 lay in the range of 5 to 20 times and the relative expression level of the Firefly luciferase gene against general lipid nanoparticles, MutuDC1940 cells, no serum, LP ratio 5,000:1 to 10,000:1 lay within 5 to 20 times.

Take “antibody-bound lipid nanoparticle carrying a fragment of the NLDC145 antibody conjugated with the membrane scaffold protein ApoE3 (scFv)”: the relative expression level of the Firefly luciferase gene against general lipid nanoparticles, MutuDC1940 cells, 10% FBS, LP ratio 500:1 to 100,000:1 was in the range of 5 to 20 times and the relative expression level of the Firefly luciferase gene against general lipid nanoparticles, MutuDC1940 cells, no serum, LP ratio 500:1 to 1,000:1 was 5 to 20 times.

Take “antibody-bound lipid nanoparticle carrying a fragment of the NLDC145 antibody conjugated with the membrane scaffold protein ApoA1 (scFv)”: the relative expression level of the Firefly luciferase gene against general lipid nanoparticles, MutuDC1940 cells, 10% FBS, LP ratio 1,000:1 to 100,000:1 is 5 to 20 times and the relative expression level of the Firefly luciferase gene against general lipid nanoparticles, MutuDC1940 cells, no serum, LP ratio 500:1 to 10,000:1 was in the range of 5 to 20 times.

Source of the values: patent US20250152732A1.
